Reference: patent publication US20260185163A1 (Dana-Farber, published 2026)
Changes are numbered by the printed parent chain. Ends that are not written are not given here. * marks the point of attachment. FITC = O=C1OC2(c3ccc(O)cc3Oc3cc(O)ccc32)c2ccc(NC(=S)*)cc21

Columns and labels:
Test in all cases: fluorescence polarization; 1 nM FITC-MLL1 4-43(C-A) probe titrated with StrepII-Avi-TEV-Menin; one site total fit; mean±S.D., N=3
[1] = target: T1, StrepII-Avi-TEV-Menin (wild-type human Menin, recombinant, E. coli) (human, UniProt O00255 1-610)
T1 construct: also called WT Menin; WT-Menin
T1 sequence: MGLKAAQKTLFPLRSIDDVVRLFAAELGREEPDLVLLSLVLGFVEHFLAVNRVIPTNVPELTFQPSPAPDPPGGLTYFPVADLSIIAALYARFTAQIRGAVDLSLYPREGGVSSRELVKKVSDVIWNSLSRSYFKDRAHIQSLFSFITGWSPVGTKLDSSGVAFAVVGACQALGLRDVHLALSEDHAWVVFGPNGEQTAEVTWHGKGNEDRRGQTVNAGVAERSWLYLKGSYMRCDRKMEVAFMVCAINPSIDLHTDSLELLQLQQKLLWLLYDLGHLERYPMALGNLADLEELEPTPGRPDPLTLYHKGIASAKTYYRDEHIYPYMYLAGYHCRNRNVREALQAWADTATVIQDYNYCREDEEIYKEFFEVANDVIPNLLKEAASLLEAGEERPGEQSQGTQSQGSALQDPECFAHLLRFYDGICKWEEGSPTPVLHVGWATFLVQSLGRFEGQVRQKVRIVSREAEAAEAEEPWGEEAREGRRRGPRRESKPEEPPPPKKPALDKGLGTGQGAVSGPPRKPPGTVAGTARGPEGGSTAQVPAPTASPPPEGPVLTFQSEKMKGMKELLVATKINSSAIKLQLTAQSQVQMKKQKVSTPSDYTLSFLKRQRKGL
Experimental: (§1) To derive the FITC-MLL1₄₋₄₃(C-A) peptide Kd. FITC-conjugated MLL1₄₋₄₃(C-A) peptide probe at final concentration of 1 nM was mixed with increasing concentration of purified StrepII-Avi-TEV-Menin (5 μM final top concentration, 2-fold, 23-point dilution and a buffer control) in an assay buffer (50 mM Tris pH 7.5, 200 mM NaCl, 0.1% Pluronic F-68 solution (Sigma)) in 384-well microplates at 15 μL assay volume (Corning, 4514) and incubated for 30 min at room temperature (RT). For all assays change in fluorescence polarization was monitored using a PHERAstar FS microplate reader (BMG Labtech). […] In competitive titration experiments Menin proteins (1 nM WT, 1 nM M327I or 3 nM for T349M) and 1 nM FITC-conjugated MLL1₄₋₄₃(C-A) peptide probe were incubated in an assay buffer for 30 min. SNDX-5613 was then dispensed to 384-well microplate (Corning, 4514) containing 15 μL of the assay mix using D300e Digital Dispenser (HP) and normalized to 1% DMSO followed by 90 min incubation. The fluorescence polarization was monitored by PHERAstar FS microplate reader (BMG Labtech). The MLL1₄₋₄₃(WT) and MLL1₄₋₄₃(C-A) peptide titrations were performed by addition of 7.5 μL of 2-fold 23-point serial dilution into 7.5 μL of assay mix with the final concentrations of 1 nM FITC-conjugated MLL₄₋₄₃ peptide probe, 1 nM WT Menin or 1 nM Menin M327I or 3 nM Menin T349M in assay buffer. The fluorescence polarization was monitored by PHERAstar FS microplate reader (BMG Labtech). For analysis of the competitive titration experiments the last 10 cycles of the data were averaged to obtain technical replicates. Data from three independent replicates (n=3) was plotted and IC₅₀ values estimated using variable slope equation in GraphPad Prism 9. The calculation of Kᵢ values was performed using Kᵢ calculator available at websites.umich.edu/˜shaomengwanglab/software/calc_ki/index.html²³.

[2] = target: T2, StrepII-Avi-TEV-Menin M327I (recombinant mutant human Menin) (human, UniProt O00255 1-610)
T2 construct: The mutant plasmid was made from the wild-type StrepII-Avi-TEV Menin construct; also called M327I-mutant Menin; M327I Menin
T2 sequence: T1 sequence with M327I
Experimental: as §1

[3] = target: T3, StrepII-Avi-TEV-Menin T349M (recombinant mutant human Menin) (human, UniProt O00255 1-610)
T3 construct: The mutant plasmid was made from the wild-type StrepII-Avi-TEV Menin construct; also called T349M-mutant Menin; T349M Menin
T3 sequence: T1 sequence with T349M
Experimental: as §1

B1: N-terminal FITC-conjugated MLL1 4-43(C-A) peptide probe (peptide)
peptide: {FITC}-SARWRFPARPGTTGGGGGGGRRGLGGAPRQRVPALLLPPGY
modifications: not fully specified
notes: also called FITC-MLL14-43(C-A) peptide; MLL1 peptide
Kd [1]: 0.76 nM
Kd [2]: 0.91 nM
Kd [3]: 2.99 nM
